Measurements reported in PMC3461514 (The Journal of Cell Biology, 2012).

B1: HEG1 cytoplasmic tail model protein (residues 1,274-1,381) (domain or fragment, human, UniProt Q9ULI3 1274-1381, looked up)
chain: RKNKNDISKLIFKSGDFQMSPYAEYPKNPRSQEWGREAIEMHENGSTKNLLQMTDVYYSPTSVRNPELERNGLYPAYTGLPGSRHSCIFPGQYNPSFISDESRRRDYF
B2: recombinant human HEG1 C26 peptide (residues 1,356-1,381) (peptide, UniProt Q9ULI3 1356-1381, looked up)
chain: SRHSCIFPGQYNPSFISDESRRRDYF

Tests used:
GST-KRIT1 FERM = GST-KRIT1 FERM (human, UniProt O00522 420-734); experiment: pull-down
Sequence of GST-KRIT1 FERM (O00522 420-734): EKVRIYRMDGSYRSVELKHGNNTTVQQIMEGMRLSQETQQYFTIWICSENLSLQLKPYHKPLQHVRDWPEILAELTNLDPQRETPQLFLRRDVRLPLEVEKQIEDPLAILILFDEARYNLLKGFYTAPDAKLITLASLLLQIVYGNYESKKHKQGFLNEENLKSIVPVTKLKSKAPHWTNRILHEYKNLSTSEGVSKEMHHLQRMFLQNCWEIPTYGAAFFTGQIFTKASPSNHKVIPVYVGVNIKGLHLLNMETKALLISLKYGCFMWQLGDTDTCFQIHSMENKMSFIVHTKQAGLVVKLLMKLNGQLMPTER

[1] = target: KRIT1 FERM domain, KRIT1(417-736) (human, UniProt O00522 417-736); experiment: ITC
Sequence of KRIT1 FERM domain, KRIT1(417-736) (O00522 417-736): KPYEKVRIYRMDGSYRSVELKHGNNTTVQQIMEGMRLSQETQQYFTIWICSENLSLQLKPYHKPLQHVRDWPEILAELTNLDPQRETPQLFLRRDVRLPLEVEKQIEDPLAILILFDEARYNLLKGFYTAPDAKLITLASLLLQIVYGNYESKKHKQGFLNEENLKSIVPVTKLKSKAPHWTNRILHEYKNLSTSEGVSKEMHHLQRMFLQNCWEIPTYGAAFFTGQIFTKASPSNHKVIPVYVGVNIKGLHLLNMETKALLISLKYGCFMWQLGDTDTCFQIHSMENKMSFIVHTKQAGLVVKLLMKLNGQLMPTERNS

[2] = target: KRIT1(L717,721A) FERM protein (human, UniProt O00522 420-734, L717A | L721A); experiment: ITC
Sequence of KRIT1(L717,721A) FERM protein (O00522 420-734 L717A/L721A): as the sequence (O00522 420-734) above, with L298A, L302A counted along it

| Binder | binding result (GST-KRIT1 FERM) | stoichiometry N [1] | fold reduction in affinity against wild type [2] |
| --- | --- | --- | --- |
| B1 | binds | – | – |
| B2 | – | 1.01 | > 100 fold |
